In the nanobody polyreactivity screen of Harvey et al. (2022):

Assay: yeast display, Sf9 membrane polyspecificity reagent, FACS + sequencing; frameworks hold sequencing errors
In short: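 Genes from sorted yeast were amplified by colony PCR, read by MiSeq 2 × 250 sequencing and filtered on CDR length. These cells carried a synthetic nanobody library in Saccharomyces cerevisiae BJ5465 and were sorted by FACS into low and high (top ~1%) gates on anti-HA and streptavidin fluorescence. Polyreactivity is labelled according to the gate of origin.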
With “QVQLVESVGGLVQAGGSLRLSCAASGSTFAANAMGWYRQAPGKASELVAAITSVGTTYYADSVKGRFTISRDNGKNTVYLQMNSLKPEDTEVYYCNAEYGVWYDYLVVPYDYWGQGTQVTVSS” the “polyreactivity (PSR sort gate)” value was “low polyreactivity”.
For “QVQLVESVGGLVQAGGSLRLSCAASGSTFAGYAMGWYRQAPGKERELVATITYSGGSTYYADSVKGRFTISRDNAKNTVYLQMNSLKPEDTEVYYCAKKASYWWGYEYWGQGTQVTVSS”, the “polyreactivity (PSR sort gate)” value was “low polyreactivity”.
In the case of “QVQLVESVGGLVQAGGSLRLSCAASGSTFRYNAMGWYRQAPGKERELVATISSDGITYYADSVNGRFTISRDNAKNTVYLQMNRLKPEDTAVYYCAASYAGGFDYWGQGTQVTVSS”, the “polyreactivity (PSR sort gate)” value is reported as “high polyreactivity”.
In the case of “QVQLVESVGGLVQAGGSLRLSCAASGSTFVGNAMGWYRQAPGKERELVAAITGGGGSTYYADSVKGRFTISRDNAKNTVYLQMNSLKPEDTAVYYCAREYTYYPRWVGYDAYGEDYWGQGTQVTVSS”, the “polyreactivity (PSR sort gate)” value is reported as “low polyreactivity”.
In the case of “QVQLVESVGGLVQAGGSLRLSCAASGSTFYENTMGWYRQAPGKERELVAAISFRGGSRYYADSVKGRFTISRDNAKNTVYLQMNSLKPEDTAVYYCNADDSPVPSIRFDYWGEGTQVTVSS”, the “polyreactivity (PSR sort gate)” value is reported as “low polyreactivity”.
For “QVQLVESVGGLVQAGGSLRLSCAASGSTFYFNAMGWYRQAPGKERELVAAIDWSGGSTYYADSVKGRFTISRDNAKNTVYLQMNSLKPEDTAVYYCAAPYHYYGNTVGYADYDYWGQGTQVTVSS”, the “polyreactivity (PSR sort gate)” value was “low polyreactivity”.
In the case of “QVQLVESVGGLVQAGGSLRLSCAASGSTIRYYAIAWYRQAPGKERELVAAITSSGGRTYYADSVKGRFTISRDYAKNTVYLQMNSLKPEDTAVYYCAAYAYYHTGDDYWGQGTQVTVSS”, the “polyreactivity (PSR sort gate)” value is reported as “high polyreactivity”.
For “QVQLVESVGGLVQAGGSLRLSCAASGSTLYQYAMGWYRQAPGKERELVAAITKSGGRTYYADSVKGRFTISRDNAKNTVYLQMNSLKPEDTAVYYCNVVRGSYSSGGDYWGQGTQVTVSS”, the “polyreactivity (PSR sort gate)” value was “high polyreactivity”.
With “QVQLVESVGGLVQAGGSLRLSCAASGYIFGHYTMRWYRQAPGKERELVAGISSGGITYYADSVKGRFTISRDNAKNTVYLQMNSLKPEDTAVYYCAVGTRVKYDYWGQGTQVTVSS” the “polyreactivity (PSR sort gate)” value was “high polyreactivity”.
In the case of “QVQLVESVGGLVQAGGSLRLSCAASGYTFPDYAMGWYRQAPGKEREFVATISWSGTSTYYADSVKGRFTISRDNAKNTVYLQMNSLKPEDTAVDYCNASAYYPPSSSRYDYWGQGTQVTVSS”, the “polyreactivity (PSR sort gate)” value is reported as “low polyreactivity”.
In the case of “QVQLVESVGGLVQAGGSLRLSCAASRIFRGYAMGRYRQAPGKERELVAAIRRGGSTNYADSVKGRFTISRDNAKNSVYFQMNSLKPEDTEVYYCAADFYYDRDVDYWGQGTQVTVSS”, the “polyreactivity (PSR sort gate)” value is reported as “high polyreactivity”.
In the case of “QVQLVESVGGLVQAGGSLRLSCAAYGLTFRYYAMGWYRQSPGKESELDAAISSGGSTNYADSVKGRFTISRDNAKNTVYLQMNSLKPEDTAVYYCAAVSNSKWGRWGRAKYNYWGQGTQVTVSS”, the “polyreactivity (PSR sort gate)” value is reported as “high polyreactivity”.
For “QVQLVESVGGLVQAGGSLRLSCAAYGYTFYSNAMGWYRQAPGKDRELVASIRSRGRSTYYADSVKGRFTISRDNAKNTVYLQMNSLKPEDTAVYYCAPLPNNPAVYAYDYWGEGTQVTVSS”, the “polyreactivity (PSR sort gate)” value was “low polyreactivity”.
For “QVQLVESVGGLVQAGGSLRLSCASSGFTFRFYVMGWSRQAPGKERELVAAITASGGTTYYADSVKGRFTISRDNAKNTVYLQMNSLKPEDTAVYYCNARYYYLYGYDYWGQGTQVTVSS”, the “polyreactivity (PSR sort gate)” value was “high polyreactivity”.
For “QVQLVESVGGLVQAGGSLRLSCASSGRIFAWYGMGSYRQAPGKEMELVAAINSGGRTYYEDSVKGRFTISRVNAKNTVYLQMNSLKPEDTAVYYCAAKLAAYGWRFHYGYWGQGTQVTVSS”, the “polyreactivity (PSR sort gate)” value was “high polyreactivity”.
With “QVQLVESVGGLVQAGGSLRLSCDATGNTFRIYAMGWYIHAPGKERQLVAAISQSGGSTYYADSVKGRFTISRDNAKNTVYLQMHSLKPEDTAVYYCNRRFAPFWGRDGYWGQGTQVTVSS” the “polyreactivity (PSR sort gate)” value was “high polyreactivity”.
In the case of “QVQLVESVGGLVQAGGSLRLSSAASGFTFKYYAMVWYRQAPGKERELVAAISWSGTRTYYADSVKGRVTISRDNAKYTVYLQMNSLKPEDTAVYYCDADFNGRYDYWGQGTQVTVSS”, the “polyreactivity (PSR sort gate)” value is reported as “high polyreactivity”.
